Results: patent publication US20250277030A1 (Zymeworks, published 2025)

Assays:
[1] = biological target: T1, human sodium-dependent phosphate transporter 2B (NaPi2b) (human, UniProt O95436 1-690); assay: flow cytometry, IGROV-1 cells (endogenous NaPi2b), 24 h at 4 °C
T1 construct: UniProt ID is given as 095436 [sic]; also called hNaPi2b; Hu NaPi2b
T1 sequence: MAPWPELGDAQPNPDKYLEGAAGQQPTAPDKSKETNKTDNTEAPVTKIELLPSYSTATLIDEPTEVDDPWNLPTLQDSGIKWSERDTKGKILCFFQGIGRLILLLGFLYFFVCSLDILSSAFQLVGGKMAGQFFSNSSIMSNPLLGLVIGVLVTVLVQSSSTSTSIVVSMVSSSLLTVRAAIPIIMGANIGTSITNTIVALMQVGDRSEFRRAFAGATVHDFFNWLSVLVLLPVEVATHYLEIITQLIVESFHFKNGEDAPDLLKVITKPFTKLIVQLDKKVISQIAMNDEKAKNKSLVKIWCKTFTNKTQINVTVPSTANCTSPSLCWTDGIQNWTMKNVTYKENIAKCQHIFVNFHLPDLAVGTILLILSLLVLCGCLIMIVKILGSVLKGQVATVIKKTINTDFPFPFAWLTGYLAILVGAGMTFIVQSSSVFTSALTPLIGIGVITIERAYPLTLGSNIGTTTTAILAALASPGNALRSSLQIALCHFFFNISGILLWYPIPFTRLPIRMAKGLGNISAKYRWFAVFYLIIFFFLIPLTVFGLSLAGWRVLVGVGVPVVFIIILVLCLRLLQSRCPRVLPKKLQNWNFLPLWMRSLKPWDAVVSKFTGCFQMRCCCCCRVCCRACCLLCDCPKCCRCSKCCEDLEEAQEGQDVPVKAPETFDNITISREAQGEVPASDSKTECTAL
Outline: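 IGROV-1 cells were incubated with test antibody for 24 hours at 4° C to prevent internalization, then stained with anti-human IgG Fc AF647 for 30 min at 4° C. AF647 geometric mean fluorescence of live cells was measured by flow cytometry and plotted per antibody.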

[2] = biological target: T1, human sodium-dependent phosphate …; assay: flow cytometry, IGROV-1 cells (endogenous NaPi2b)
Protocol: (§1) Briefly, HEK293-6e cells were transfected for ˜24 hours to transiently express human NaPi2b, cynomolgus or mouse NaPi2b, at 1 μg of DNA per 1 million cells. Following transfection, 50,000 cells per well were seeded in V-bottom 96-well plates and incubated with 200 nM of primary antibody for 18-24 hours at 4° C. to prevent internalization. Post-incubation, cells were washed and stained with anti-Human IgG Fc AF647 conjugate (Jackson Immuno Research Labs, West Grove, PA, Cat. No. 109-605-098, Lot. No. 124868) at 4° C. for 1 hour. Following staining and washing, fluorescence was detected by flow cytometry on BD LSRFortessa™ Cell Analyzer (BD Biosciences, Franklin Lake, NJ) with 10,000 minimum events collected per well. The AF647/APC-A GeoMean (fluorescence signal geometric mean, proportional to anti-Human AF647 binding) was calculated for the live singlet cell population for each primary antibody using FlowJo™ v8 software (BD Biosciences, Franklin Lake, NJ). The Bmax and Kd of each primary antibody were calculated using GraphPad Prism Version 9 (GraphPad Software, San Diego, CA)
(§2) The ability of ADCs to bind to cells expressing NaPi2b was assessed. […] Binding to endogenous high NaPi2b-expressing cell lines IGROV-1 and HCC-78 was assessed by flow cytometry according to methods described in Example 5.

[3] = biological target: T1, human sodium-dependent phosphate …; assay: flow cytometry, HCC-78 cells (endogenous NaPi2b); apparent Kd
Protocol: as §1, §2

- Bmax (MFI) [1]: 40900 MFI
- Bmax (MFI) [2]: 78100 MFI
- Kd [3]: 2.27 nM
B1: v29456 humanized anti-NaPi2b antibody (H1L2) (antibody, human IgG1, kappa)
heavy: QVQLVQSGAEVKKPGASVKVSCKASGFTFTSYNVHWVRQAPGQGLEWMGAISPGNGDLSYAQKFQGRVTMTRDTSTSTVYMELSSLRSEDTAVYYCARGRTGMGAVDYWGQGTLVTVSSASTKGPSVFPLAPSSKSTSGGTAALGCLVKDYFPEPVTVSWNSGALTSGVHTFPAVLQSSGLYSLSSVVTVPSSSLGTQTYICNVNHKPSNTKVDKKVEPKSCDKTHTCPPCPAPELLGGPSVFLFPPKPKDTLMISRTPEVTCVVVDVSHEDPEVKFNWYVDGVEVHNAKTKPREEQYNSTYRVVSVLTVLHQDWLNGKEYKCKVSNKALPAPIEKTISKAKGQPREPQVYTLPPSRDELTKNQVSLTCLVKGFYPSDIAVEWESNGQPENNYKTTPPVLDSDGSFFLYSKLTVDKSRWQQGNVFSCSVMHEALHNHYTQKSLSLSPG
light: DVQMTQSPSSLSASVGDRVTITCRASQDVYSYLNWYQQKPGKAVKLLIYYTSRLQSGVPSRFSGSGSGTDYTLTISSLQPEDFATYYCQQYNIFPWTFGQGTKLEIKRTVAAPSVFIFPPSDEQLKSGTASVVCLLNNFYPREAKVQWKVDNALQSGNSQESVTEQDSKDSTYSLSSTLTLSKADYEKHKVYACEVTHQGLSSPVTKSFNRGEC
